# Results reported in patent publication US20200299384A1.
# Where a chain is given by its changes, count along the chain named.
# B1: WBP3311_2.400.5 (antibody, V domains shown)
# VH: QVQLQQSGPELVNPGASVKISCKASGYSFTNYYLHWVKQRPGQGLEWIGWIFPESDNTKYNEKLKGKATLTADTSSDTAYMHLSSLTFEDSAVYFCARDSVGNYFFDFWGQGTTLTVSS
# VL: DIVMSQSPSSLAVSAGEKVTMRCKSSQSLVNNRTRKNYLAWYQQKPGQPPKLLIYWASTRESGVPDRFTGSGSGTDFTLTISSVQAEDLAVYYCAQSFILRTFGGGTKLEIK
# B2: WBP3311_2.482.5 (antibody, V domains shown)
# VH: QVQLQQSGPELVKPGSSVKISCKPSGYTFTTYYIHWVKQRPGQGLEWIGWIFPGSDNIKYNENFKDKATLTADTSSSTAYMQLSSLTSEDSAVYFCARDSVSRYYFDYWGQGTILTVSS
# VL: B1 VL with R22S, N32D, Q48L, P49S
# B3: WBP3311_2.306.4 (antibody, IgG2b, V domains shown)
# VH: QVQLQQSGPELVKPGASVRISCKASGFAFTDYYIHWVKQRPGQGLEWIGWISPGNVNTKYNENFKGRATLTADLSSSTAYMQLSSLTSEDSAVYFCARDGYSLYYFDYWGQGTTLTVSS
# VL: DIVMSQSPSSLTVSAGEKVTMSCKSSQSLLNSRTRKNYLAWYQQKPGQSPKLLIYWASTRQSGVPDRFTGSGSGTAFTLTISGVQAEDLAVYFCTQSHTLRTFGGGTKLEIK
# B4: WBP3311_2.383.47 (antibody, V domains shown)
# VH: QVQLQQSGPELVKPGASVRISCKTSGFTFTNYYIHWVIQRPGQGLEWIGWISPENGNTKYNENFQDKATLTADISSSTAYMHLSSLTSEDSAVYFCARDGYSLYYFDYWGQGTTLTVSS
# VL: B3 VL with T59I, Q61V, A76T, F93Y
# B5: WBP331_2.488.33 (antibody, V domains shown)
# VH: QVQLQQSGPELVKPGTSVKISCKASGFSFTNYYIHWVKQRPGQGPEWIGWIFPGTVNTKYNEKFKGKATLTADTSSNTAFMQLSSLTSADSAVYFCARDSVGIYYFDFWGLGTTLTVSS
# VL: B1 VL with M21V, R22S, V30L, P49S, A95T
# B6: WBP3311_2.844.8 (antibody, V domains shown)
# VH: B3 VH
# VL: B3 VL with Q61E
# Target: mouse CD3epsilon protein (mouse) (UniProt P22646)
# Assay: ELISA, antigen coated on plate
# Chain of mouse CD3epsilon protein (mouse) (P22646 22-108 limits assumed): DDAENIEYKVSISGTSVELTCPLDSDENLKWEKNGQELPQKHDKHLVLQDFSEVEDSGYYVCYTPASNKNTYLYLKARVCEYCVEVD
row,ELISA A450,Binder
1,0.709 A450,B1
2,0.61 A450,B2
3,0.711 A450,B3
4,0.666 A450,B4
5,0.607 A450,B5
6,0.6 A450,B6
